assay: soluble on expression in E. coli; label from the status in PepcDB or PDB records

Row | Sequence | soluble on expression in E. coli
1 | GSVDIEVQDLEEFALRPAPQGITIKCRITRDKKGMDRGMFPTYFLHLDREDGKKVFLLAGRKRKKSKTSNYLISVDPTDLSRGGDSYIGKLRSNLMGTKFTVYDNGVNPQKASSSTLESGTLRQELAAVCYETNVLGFKGPRKMSVIVPGMNMVHERVCIRPRNEHETLLARWQNKNTESIIELQNKTPVWNDDTQSYVLNFHGRVTQASVKNFQIIHGNDPDYIVMQFGRVAEDVFTMDYNYPLCALQAFAIALSSFDSKLACE | soluble
2 | GSYAEGQRKRRNTIHEFKKSAKTTLIKIDPALKIKTKKVNTADQCANRCTRNKGLPFTCKAFVFDKARKQCLWFPFNSMSSGVKKEFGHEFDLYENKDYIRNCIIGEGESYKGTVSITKSGIKCQPWSSMIPHEHSFLPSSYRGKDLQENYCRNPRGEEGGPWCFTSNPEVRYEVCDIPQCSEVECMTANGESYRGLMDHTESGKICQRWDHQTPHRHKFLPERYPDKGFDDNYCRNPDGQPRPWCYTLDPHTRWEYCAIKTCA | soluble
3 | GSYHADPSLVSFLTGLGCPNCIEYFTSQGLQSIYHLQNLTIEDLGALKIPEQYRMTIWRGLQDLKQGHDYSTAQQLLRSS | soluble
4 | GTGTRFGTDLAKEAKKVHQTTRTVPAKRGTIYDRNGVPIAEDATSYNVYAVIDENYKSATGKILYVEKTQFNKVAEVFHKYLDMEESYVREQLSQPNLKQVSFGAKGNGITYANMMSIKKELEAAEVKGIDFTTSPNRSYPNGQFASSFIGLAQLHENEDGSKSLLGTSGMESSLNSILAGTDGIITYEKDRLGNIVPGTEQVSQRTMDGKDVYTTISSPLQSFMETQMDAFQEKVKGKYMTATLVSAKTGEILATTQRPTFDADTKEGITEDFVWRDILYQSNYEPGSTMKVMMLAAAIDNNTFPGGEVFNSSELKIADATIRDWDVNEGLTGGRMMTFSQGFAHSSNVGMTLLEQKMGDATWLDYLNRFKFGVPTRFGLTDEYAGQLPADNIVNIAQSSFGQGISVTQTQMIRAFTAIANDGVMLEPKFISAIYDPNDQTARKSQKEIVGNPVSKDAASLTRTNMVLVGTDPVYGTMYNHSTGKPTVTVPGQNVALKSGTAQIADEKNGGYLVGLTDYIFSAVSMSPAENPDFILYVTVQQPEHYSGIQLGEFANPILERASAMKDSLNLQTTAKALEQVSQQSPYPMPSVKDISPGDLAEELRRNLVQPIVVGTGTKIKNSSAEEGKNLAPNQQVLILSDKAEEVPDMYGWTKETAETLAKWLNIELEFQGSGSTVQKQDVRANTAIKDIKKITLTLGD | soluble
5 | GVALGATRVIYPAGQKQVQLAVTNNDENSTYLIQSWVENADGVKDGRFIVTPPLFAMKGKKENTLRILDATNNQLPQDRESLFWMNVKAIPSMDKSKLTENTLQLAIISRIKLYYRPAKLALPPDQAAEKLRFRRSANSLTLINPTPYYLTVTELNAGTRVLENALVPPMGESAVKLPSDAGSNITYRTINDYGALTPKMTGVME | soluble
6 | GVKLQQSGPEVVKPGASVKISCKASGYSFTNFYIHWVKQRPGQGLEWIGWIFHGSDNTEYNEKFKDKATLTADTSSSTAYMQLSSLTSEDSAVYFCARWGPHWYFDVWGQGTTVTVSSAKTTPPSVYPLAPGNSMVTLGCLVKGYFPEPVTVTWNSGSLSSGVHTFPAVLQSDLYTLSSSVTVPSSTWPSETVTCNVAHPASSTKVDKKIAAAG | soluble
7 | GVNSVAARVTELTGREVAAVAERGHSHRWHLYRVELADGTPLFVKALPDDAPALDGLFRAEALGLDWLGRSFGSPVPQVAGWDDRTLAMEWVDERPPTPEAAERFGHQLAAMHLAGAESFGATWDGYIGPLPMDNTPRSTWPEFYAEQRILPYLRRAADRGALTPGDVRLVEKVLDALDHLAGDPEPPARIHGDLWNGNVLWQDDGAVVIDPAAHGGHREADLAMLALFGLPYLDRVRDAYNEVAPLAEGWRARIPLHQLHPLLVHVCLFGAAYRTTLVDTARAALRA | soluble
8 | GVSTAVAQDFTIAAKHAIAVEANTGKILYEKDATQPVEIASITKLITVYLVYEALENGSITLSTPVDISDYPYQLTTNSEASNIPMEARNYTVEELLEATLVSSANSAAIALAEKIAGSEKDFVDMMRAKLLEWGIQDATVVNTTGLNNETLGDNIYPGSKKDEENKLSAYDVAIVARNLIKKYPQVLEITKKPSSTFAGMTITSTNYMLEGMPAYRGGFDGLKTGTTDKAGESFVGTTVEKGMRVITVVLNADHQDNNPYARFTATSSLMDYISSTFTLRKIVQQGDAYQDSKAPVQDGKEDTVIAVAPEDIYLIERVGNQSSQSVQFTPDSKAIPAPLEAGTVVGHLTYEDKDLIGQGYITTERPSFEMVADKKIEK | soluble
9 | GVVGSDARSRGRVPGYASSSLYRESGIISARQLALLQRMLPRLRLEQLFRCEWLQQRLARGLALGREEVRQILLCAAQDDDGWCAELGDRVNLAVPQSMIDWVLLPVYGWWESLLDQAIPGWRLSLVELETQSRQLRIKSEFWSRVAELEPEQAREELARVAKCQARTQEQVAELAGKLETASALAKSAWPNWQRGMATLLASGGLAGFEPIPEVLECLWQPLCRLDDDVGAADAVQAWLHERNLCQAQDHFYWQS | soluble
10 | HFNVLADTPSGLVPLHLRSPQVPAAQQMLNFPEKNKEKPVDLQNFGLRTDIYSKKTLAKSKGASAGREWTEQETLLLLEALEMYKDDWNKVSEHVGSRTQDECILHFLRLPIEDPYLENSDASLGPLAYQPVPFSQSGNPVMSTVAFLASVVDPRVASAAAKAALEEFSRVREEVPLELVEAHVKKVQEAARASGKVDPTYGLESSCIAGTGPDEPEKLEGAEEEKMEADPDGQQPEKAENKVENETDEGDKAQDGENEKNSEKEQDSEVSEDTKSEEKETEENKELTDTCKERESDTGKKKVEHEISEGNVATAAAAALASAATKAKHLAAVEERKIKSLVALLVETQMKKLEIKLRHFEELETIMDREKEALEQQRQQLLTERQNFHMEQLKYAELRARQQMEQQQHGQNPQQAHQHSGGPGLAPLGAAGHPGMMPHQQPPPYPLMHHQMPPPHPPQPGQIPGPGSMMPGQHMPGRMIPTVAANIHPSGSGPTPPGMPPMPGNILGPRVPLTAPNGMYPPPPQQQPPPPPPADGVPPPPAPGPPASAAP | soluble
11 | HHHHHHATGDDHFYAEYLMPGLQRLLDPESAHRLAVRVTSLGLLPRATFQDSDMLEVKVLGHKFRNPVGIAAGFDKNGEAVDGLYKLGFGFVEVGSVTPQPQEGNPRPRVFRLPEDQAVINRYGFNSHGLSVVEHRLRARQQKQAQLTADGLPLGINLGKNKTSEDAAADYAEGVRTLGPLADYLVVNVSSPNTAGLRSLQGKTELRHLLSKVLQERDALKGTRKPAVLVKIAPDLTAQDKEDIASVARELGIDGLIVTNTTVSRPVGLQGALRSETGGLSGKPLRDLSTQTIREMYALTQGRIPIIGVGGVSSGQDALEKIQAGASLVQLYTALIFLGPPVVVRVKRELEALLKERGFTTVTDAIGADHRR | soluble
12 | HHHHHHGHMRTNKDRLVRISVVGEIAPAKMRSPYSVTTEGTVRVIPVLGGITYNVKVGDSAYGWAGDHVEPGVSVMARRKEEEIPLMTLSCIGNEVIVMSGDAKGSRGFVTGKHGGVNHVLVHFEEEVLGKLMVGDKILIKAWGQGLKLLDHPDVKVMNIDPDLFEKLGIQEKNGKIHVPVVAKIPAHMMGSGIGASSSASTDYDIMASNPEDLGVADLKLGDIVAIQDHDNSYGVGKYRKGAVSIGVVVHSACVSAGHGPGVVVIMTGDESKILPEEVERANISDYLVR | soluble
13 | HHHHHHMDLVEKVKELCLELEEENLAKAIERFITLTHGIEKTRGEAFAKASIYGFLEGILTTLKMKYSNEKIETLLNEVKTAREETEALLRKPRPPLLVDNDL | soluble
14 | HHHHHHMPIQVLPPQLANQIAAGEVVERPASVVKELVENSLDAGATRIDIDIERGGAKLIRIRDNGCGIKKDELALALARHATSKIASLDDLEAIISLGFRGEALASISSVSRLTLTSRTAEQQEAWQAYAEGRDMNVTVKPAAHPVGTTLEVLDLFYNTPARRKFLRTEKTEFNHIDEIIRRIALARFDVTINLSHNGKIVRQYRAVPEGGQKERRLGAICGTAFLEQALAIEWQHGDLTLRGWVADPNHTTPALAEIQYCYVNGRMMRDRLINHAIRQACEDKLGADQQPAFVLYLEIDPHQVDVNVHPAKHEVRFHQSRLVHDFIYQGVLSVLQQQLETPLPLDDEPQPAPR | soluble
15 | HHHHHHTNEAYLAHERRELEAKRNQLRDEVDRTKTHMQDEAANDPNWFDITAQLWEFSQELRNRDREEKLIKKIEQTLKKVENED | soluble
16 | HHHHHSSGLVPRGSHMTNPAYFPQLSQLDVSGEMESTYEDIRLTLRVPWVAFGCRVLATFPGYLPLAWRRSAEALITRYAEQAADELRERSLLNIGPLPNLKERLYAAGFDDGEIEKVRRVLYAFNYGNPKYLLLITALSESMQMRPVGGAEVSSELRASIPKGHPKGMDPLLPLVDATKASTEVQGLLKRVADLHYHHGPASDFQALANWPKVLQIVTDEVLAPVARTEQYDAKSRELVTRARELVRGLPGSAGVQRSELMSMLTPNELAGLTGVLFMYQRFIADITISIIHITECLDGAEAASKSPFPI | soluble
17 | HHQELCTKGDDALVTELECIRLRISPETNAAFDNAVQQLNCLNRACAYRKMCATNNLEQAMSVYFTNEQIKEIHDAATACDPEAHHEHDH | soluble
18 | HMAKATTIKDAIRIFEERKSVVATEAEKVELHGMIPPIEKMDATLSTLKACKHLALSTNNIEKISSLSGMENLRILSLGRNLIKKIENLDAVADTLEELWISYNQIASLSGIEKLVNLRVLYMSNNKITNWGEIDKLAALDKLEDLLLAGNPLYNDYKENNATSEYRIEVVKRLPNLKKLDGMPVDVDEREQANVARGG | soluble
19 | HPWQRASVWAEILPSILFRTDFTNAQDEPDEMSSKLHRRSSFQPAFQVGVAYRVSDHMGIEAHAGYQLGEAVYHLMEETSTWSIIKKRATVPYRGFEFAVGLQFYPFR | not soluble
20 | IAQQTEETVVEVETVTGFGANDAILDIRSIDEQEDKPLKVEGVEVVSLPFYKLSTKFGDLDQSKTWLLWCERGVMSRLQALYLREQGFSNVKVYR | not soluble
21 | IEDEVIYSKKRYKLKREIDKLFLDEEYFQIEPQLFEEYDEFTTINNKIPEESMVKVVNGKVMVLRADITTSIIKSLVPRWEDGLKLKLFYNSSIYKNKNTVGIKEIRQIGCEYLGEASVEADREVVKLALKILEKYNNNFILEVGSSKYIHGLLEELNLNKNCENQIKNLLYTKNTHELKVYIEELKIKHEVKELLSNILSLQGNLYNVIEKSNKFYCNNKMKQALEELKQVNNLIEECNFLDKARFDLSMITMLDYYEGIMFRGYYPNSYKEILSGGRYDSLTKEYGKEIPAIGFTLSVDELMKYVYK | not soluble
22 | IEEVYEATLDAIQGALNCDRASILLFDEAGTMRFVAARGLSEHYQRAVDGHSPWITGANEPEPIFVENVDDAEFSRELKESIVGEGIAALGFFPLVTEGRLIGKFMTYYDRPHRFADSEIGMALTIARQLGFSIQRMRAEYARRQAEE | soluble
23 | IEKNQIDMANGQELLISESLAVSQATTTFIDQLRILAPFGTDNTVPTFVFKEITPTQIRQIGADNAHLKFQMNQEGAQLDAIAFQMGPQADELAQGTADVAGQLSINEWNGRKKPQ | not soluble
24 | IENYHVEEAENDLTQLANKVAVILENHEDQALARSITWELADNLTSIAIIQDEKNHWYSPNDKNRLSSITVEQIQHDKDLNKALKDHKKVSKRTGLSDTDTDNERLIVGVPYEKDGKKGMVFLSQSLLAVKDTTKHTTR | not soluble
25 | ILKELENLSPEEAAHQKAVVETLLQEDPWRVAKMVKSYLQQHNIPQREVVDTTGLNQSHLSQHLNKGTPMKTQKRAALYTWYVRKQREVAQQFTHAGQGGLIEEPTGDELPTKKGRRNRFKWGPASQQILFQAYERQKNPSKEERETLVEECNRAECIQRGVSPSQAQGLGSNLVTEVRVYNWFANRRKEEAFR | soluble

From the DeepSol protein solubility set
